No end group written: not given here. *: point of attachment. FITC = O=C1OC2(c3ccc(O)cc3Oc3cc(O)ccc32)c2ccc(NC(=S)*)cc21; Ahx = NCCCCCC(=O)O
B1: soluble αVβ6 headpiece (complex)
chain 1: FNLDVDSPAEYSGPEGSYFGFAVDFFVPSASSRMFLLVGAPKANTTQPGIVEGGQVLKCDWSSTRRCQPIEFDATGNRDYAKDDPLEFKSHQWFGASVRSKQDKILACAPLYHWRTEMKQEREPVGTCFLQDGTKTVEYAPCRSQDIDADGQGFCQGGFSIDFTKADRVLLGGPGSFYWQGQLISDQVAEIVSKYDPNVYSIKYNNQLATRTAQAIFDDSYLGYSVAVGDFNGDGIDDFVSGVPRAARTLGMVYIYDGKNMSSLYNFTGEQMAAYFGFSVAATDINGDDYADVFIGAPLFMDRGSDGKLQEVGQVSVSLQRASGDFQTTKLNGFEVFARFGSAIAPLGDLDQDGFNDIAIAAPYGGEDKKGIVYIFNGRSTGLNAVPSQILEGQWAARSCPPSFGYSMKGATDIDKNGYPDLIVGAFGVDRAILYRARPVITVNAGLEVYPSILNQDNKTCSLPGTALKVSCFNVRFCLKADGKGVLPRKLNFQVELLLDKLKQKGAIRRALFLYSRSPSHSKNMTISRGGLMQCEELIAYLRDESEFRDKLTPITIFMEYRLDYRTAADTTGLQPILNQFTPANISRQAHILLDTGGLEVLFQ
chain 2: HVQGGCALGGAETCEDCLLIGPQCAWCAQENFTHPSGVGERCDTPANLLAKGCQLNFIENPVSQVEILKNKPLSVGRQKNSSDIVQIAPQSLILKLRPGGAQTLQVHVRQTEDYPVDLYYLMDLSASMDDDLNTIKELGSRLSKEMSKLTSNFRLGFGSFVEKPVSPFVKTTPEEIANPCSSIPYFCLPTFGFKHILPLTNDAERFNEIVKNQKISANIDTPEGGFDAIMQAAVCKEKIGWRNDSLHLLVFVSDADSHFGMDSKLAGIVCPNDGLCHLDSKNEYSMSTVLEYPTIGQLIDKLVQNNVLLIFAVTQEQVHLYENYAKLIPGATVGLLQKDSGNILQLIISAYEELRSEVELEVLGDTEGLNLSFTAICNNGTLFQHQKKCSHMKVGDTASFSVTVNIPHCERRSRHIIIKPVGLGDALELLVSPECNCDCQKEVEVNSSKCHHGNGSFQCGVCACHPGHMGPRCESRGLQTLFQ
B2: homologous peptide from pro-TGF-β2 (SGD in place of RGD) (peptide)
chain: YTSGDQKTI
B3: FITC–pro-TGF-β3 peptide (FITC-aminohexanoic-GRGDLGRL) (peptide)
peptide: {FITC-Ahx}-GRGDLGRL

Tests used:
Assay in all cases: fluorescence polarisation
[1] = biological target: nonapeptide containing RGD from pro-TGF-β3
soluble αVβ6 headpiece = biological target: B1
soluble αVβ3 headpiece = soluble αVβ3 headpiece (human, UniProt P06756 31-624; P05106 27-498, M400C | Q267C)
Chain of soluble αVβ3 headpiece (P05106 27-498 Q293C, one chain of several): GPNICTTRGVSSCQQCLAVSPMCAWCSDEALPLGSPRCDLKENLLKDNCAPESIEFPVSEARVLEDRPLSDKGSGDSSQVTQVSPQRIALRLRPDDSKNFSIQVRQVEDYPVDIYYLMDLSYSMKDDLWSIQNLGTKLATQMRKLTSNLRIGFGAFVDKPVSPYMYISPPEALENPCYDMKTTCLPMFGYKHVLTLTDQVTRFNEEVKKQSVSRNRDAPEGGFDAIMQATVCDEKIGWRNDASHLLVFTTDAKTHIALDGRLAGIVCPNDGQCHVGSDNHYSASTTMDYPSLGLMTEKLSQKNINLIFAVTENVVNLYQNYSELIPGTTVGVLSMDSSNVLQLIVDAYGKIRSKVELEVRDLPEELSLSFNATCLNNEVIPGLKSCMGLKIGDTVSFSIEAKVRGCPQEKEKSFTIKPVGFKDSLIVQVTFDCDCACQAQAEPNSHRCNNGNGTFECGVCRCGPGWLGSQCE

Binder: B1
- Kd [1]: 0.0085 µM

Binder: B2
- Kd (soluble αVβ6 headpiece): 8.5 µM

Binder: B3
- binding result (soluble αVβ3 headpiece): binds

Source: publication PMC4717663 (Nature structural & molecular biology, 2014)
